Laboratory results as given in patent publication US20050196753A1, “Human coactivator-associated arginine methyltransferase 1 (hCARM1)” (priority 2002, published 2005).

Tests used:
Histone H3 = assay: Methylation assay: methylating activity of purified hCARM1; format: biochemical; settings: increasing amounts of purified enzyme, constant recombinant Histone H3 (FIG. 2)
Protocol: Methylation assay protocol: Reactions were performed in IX methylation buffer containing 20 mM Tris.HCl, pH 8.0, 200 mM NaCl and 0.4 mM EDTA. Reactions were assembled with 2.5 ug of Histone H3 and increasing amounts of hCARM1 (0.25 ug, 0.5 ug, 1.25 ug, 2.5 ug, 3.75 ug, 5 ug, or 7.5 ug). A mock reaction where hCARM1 was omitted was used as the negative control. Reactions were incubated at 30° C. for 1 hr. prior to loading on a 10-20% gradient SDS-PAGE. The gel was fixed, dried and exposed to film.
A methylation reaction was performed in order to evaluate whether the cloned full-length hCARM1 had methylating activity. Mouse CARM1 has been previously shown to specifically methylate Histone H3 in vitro and in vivo.

[1] = test system: ER dependent promoter reporter in T47D cells; assay: ER dependent luciferase reporter assay in transfected T47D cells; format: cell-based, human; settings: hCARM1 co-transfected with GRIP-1 and ER, compared to GRIP-1 and ER alone
Protocol: Transfection protocol: Cells were plated in 12 well-dishes and allowed to adhere and grow overnight such that they were 80% confluent at the time of transfection. Tranfections were performed in triplicate using Lipofectamine 2000 (Gibco) and OptiMEM media. Total amount of DNA transfected was held constant within experiments. Six hrs. post transfection the Lipofectamine-DNA mix was removed and replaced with fresh media containing 10% serum. Hormone (dihydrotestosterone or estradiol) was added at this time and reporter activation measured after 24 hr.
Mouse CARM1 has been implicated as a coactivator of the androgen and estrogen receptor mediated signaling pathways along with the well-known steroid coactivator GRIP-1. The contribution, if any, of the human clone to these pathways was investigated. […] Thus, antagonizing endogenous CARM1 is deleterious to hormone dependent activation by endogeous ER.

B1: hCARM1: cloned full-length human CARM1, produced in and purified from baculovirus infected insect cells; transfected as cDNA in cell assays (protein, UniProt Q86X55 1-608, looked up)
chain: MAAAAAAVGPGAGGAGSAVPGGAGPCATVSVFPGARLLTIGDANGEIQRHAEQQALRLEVRAGPDSAGIALYSHEDVCVFKCSVSRETECSRVGKQSFIITLGCNSVLIQFATPNDFCSFYNILKTCRGHTLERSVFSERTEESSAVQYFQFYGYLSQQQNMMQDYVRTGTYQRAILQNHTDFKDKIVLDVGCGSGILSFFAAQAGARKIYAVEASTMAQHAEVLVKSNNLTDRIVVIPGKVEEVSLPEQVDIIISEPMGYMLFNERMLESYLHAKKYLKPSGNMFPTIGDVHLAPFTDEQLYMEQFTKANFWYQPSFHGVDLSALRGAAVDEYFRQPVVDTFDIRILMAKSVKYTVNFLEAKEGDLHRIEIPFKFHMLHSGLVHGLAFWFDVAFIGSIMTVWLSTAPTEPLTHWYQVRCLFQSPLFAKAGDTLSGTCLLIANKRQSYDISIVAQVDQTGSKSSNLLDLKNPFFRYTGTTPSPPPGSHYTSPSENMWNTGSTYNLSSGMAVAGMPTAYDLSSVIASGSSVGHNNLIPLANTGIVNHTHSRMGSIMSTGIVQGSSGAQGSGGGSTSAHYAVNSQFTMGGPAISMASPMSIPTNTMHYGS
modifications: full-length
notes: cloned full-length human CARM1, produced in and purified from baculovirus infected insect cells; transfected as cDNA in cell assays
- methylation of Histone H3 by hCARM1 (Histone H3): methylates Histone H3 efficiently
- estradiol mediated induction of ER dependent luciferase reporter [1]: concentration dependent increase
